Article doi:10.1101/2025.08.15.670450 (2025)

Assays:
GDM_VEGFA_54 [1] = experiment: BLI
VEGF-A_Binder_13 = experiment: BLI
VEGF-A Binder 13 [2] = experiment: BLI; KD1
VEGF-A Binder 13 [3] = experiment: BLI; KD2, second site
GDM_VEGFA_54 [4] = experiment: reported in original publication

Kd (GDM_VEGFA_54 [1]): 0.0101 µM
Kd (VEGF-A_Binder_13): 0.0134 µM
Kd (VEGF-A Binder 13 [2]): 0.0264 µM
Kd (VEGF-A Binder 13 [3]): 0.0864 µM
Kd (GDM_VEGFA_54 [4]): 0.00048 µM
B1: Vascular Endothelial Growth Factor A (VEGF-A) (ligand)
chain: MTDRQTDTAPSPSYHLLPGRRRTVDAAASRGQGPEPAPGGGVEGVGARGVALKLFVQLLGCSRFGGAVVRAGEAEPSGAARSASSGREEPQPEEGEEEEEKEEERGPQWRLGARKPGSWTGEAAVCADSAPAARAPQALARASGRGGRVARRGAEESGPPHSPSRRGSASRAGPGRASETMNFLLSWVHWSLALLLYLHHAKWSQAAPMAEGGGQNHHEVVKFMDVYQRSYCHPIETLVDIFQEYPDEIEYIFKPSCVPLMRCGGCCNDEGLECVPTEESNITMQIMRIKPHQGQHIGEMSFLQHNKCECRPKKDRARQEKKSVRGKGKGQKRKRKKSRYKSWSVPCGPCSERRKHLFVQDPQTCKCSCKNTDSRCKARQLELNERTCRCDKPRR
